This is an account of results in the nanobody polyreactivity screen of Harvey et al. (2022).

The series in a line: yeast display, Sf9 membrane polyspecificity reagent, FACS + sequencing; frameworks hold sequencing errors. In outline: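 Genes from sorted yeast were amplified by colony PCR, read by MiSeq 2 × 250 sequencing and filtered on CDR length. These cells carried a synthetic nanobody library in Saccharomyces cerevisiae BJ5465 and were sorted by FACS into low and high (top ~1%) gates on anti-HA and streptavidin fluorescence. Polyreactivity is labelled according to the gate of origin.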
Consider “QVQLVESGGGLVQAGGSLRLSCAASGSTFYAYAMGWYRQAPGKGGELVAAIDSGGSTYYADSVKGRFTISRDNAKNTVYLQMNSLKPEDTAVYYCAVRHRYTRAYWGRDYWGQGTQVTVSS”, for which the “polyreactivity (PSR sort gate)” value was “low polyreactivity”.
Regarding “QVQLVESGGGLVQAGGSLRLSCAASGSTFYAYAMGWYSQAPGKERELVAAITRSGGSTYYADSVKGRFTISRDNAKNTVYLQMNSLKPEDTDVYYCNKYGYKGGVGYDYWGQGTQVTLSS”, the “polyreactivity (PSR sort gate)” value was “high polyreactivity”.
For “QVQLVESGGGLVQAGGSLRLSCAASGSTFYDNAMGWYRQAPGKERELVAAINWSSDTTYYADSVKGRFTISRDNAKNTVYLQMNSLKPEDTAVYYCATDSAYRGYDYWGQGTQVTVSS”, the “polyreactivity (PSR sort gate)” value is “low polyreactivity”.
Turning to “QVQLVESGGGLVQAGGSLRLSCAASGSTFYDYAMGWSRQAPGKERELVAAINGNGDSTYYADSVKGRFTISRDNAKITVYLLMNSLKPEDTAVYDCAAYLGWGYDYWGQGTQVTVSS”, the “polyreactivity (PSR sort gate)” value is given as “low polyreactivity”.
The same measure for “QVQLVESGGGLVQAGGSLRLSCAASGSTFYDYAMGWYRQAPGKERELVAAISRGGSTYYADCVKGRFTISRDNAKNTVYLQMNSLKPEDTAVYYCAAGRSYDSGFYYWGQGTQVTVSS”: “low polyreactivity”.
The value for “QVQLVESGGGLVQAGGSLRLSCAASGSTFYDYAMGWYRQAPGKERVLVAAISTSGGSTYADSVYGRFTISRDNAKNTVYLQMNSLKPEDTAVYYCNADDPGYAVPWYWFKYDYWGQGTQVTVSS” was “low polyreactivity”.
The value for “QVQLVESGGGLVQAGGSLRLSCAASGSTFYDYAMGWYRQAPGKESELVAAITSSGASTYYADSVKGRFTISRDNAKNTVYLQMNSLKPEDTAVYYCAARKVWRSIRVALDYWGQGTQVTVSS” was “high polyreactivity”.
Consider “QVQLVESGGGLVQAGGSLRLSCAASGSTFYEYAMGWYRQAPGKERELVAAITSGGSTYYADSVKGRFTISRDNAKNTVYLQMNSLKPEDTAVYYCAADPRIRRGDRSTHGYDYWGQGTQVTVSS”, for which the “polyreactivity (PSR sort gate)” value is recorded as “low polyreactivity”.
The same measure for “QVQLVESGGGLVQAGGSLRLSCAASGSTFYFIAMGWFRQAPGKEWELVAVIDGSGGFTYYADSVKGRFTISRDNAKNTVYLQMNSLKPEDTAVYYCAADKTQSHYDDWGQGTQVTVTS”: “high polyreactivity”; for “QVQLVESGGGLVQAGGSLRLSCAASGSTFYFNAMGWYRQAPGKARELVAAIDWSGGSTYYADSVKGRFTISRDNAKNTVYLQMNSLKPEDTAVYYCAAPYHYYGNTVGYADYDYWGQGTQVTVSS”: “low polyreactivity”.
The value for “QVQLVESGGGLVQAGGSLRLSCAASGSTFYFNAMGWYRQAPGKERELVAGIRYSGSSTYYADSVKGRFTISRDNAKNTVYLQMNSLKPVDTAVYYCAASLWRWRFSGFGYWGQGTQVTVSS” was “high polyreactivity”; that for “QVQLVESGGGLVQAGGSLRLSCAASGSTFYFYVLGWYRQAPGKERELVAAISWGGASTYYAVSVKGRFTISRDHAKNTVYLQLNSLKPEDTAVYNCTDRLRVRYDYWGQGTQVTVSS” was “low polyreactivity”.
The value for “QVQLVESGGGLVQAGGSLRLSCAASGSTFYGNAMAWYRQAPGKEREFVAAISSGGRTYYADSVKGRFTISRDNAKNTVYLQMNSLKPEDTAVYYCAVRRSAFYARFGRNYWGQGTQVTVSS” was “low polyreactivity”.
Regarding “QVQLVESGGGLVQAGGSLRLSCAASGSTFYGYAMGGYRQAPGKERELVAAISSSGGTTYYADSVKGRFTMSRDNAKNTVYLQMNSLKPEDTAVYYCAARRRSGTYWRSANDYWGQGTQVTVSS”, the “polyreactivity (PSR sort gate)” value was “high polyreactivity”.
For “QVQLVESGGGLVQAGGSLRLSCAASGSTFYGYAMGWYRQAPGKDRELVAAISSGGRTNYADSVKGRFTISRDNAKNTVYLQLHSLKPEDTAVYYCNARRIYGWWEFDYWGQGTQVTVSS”, the “polyreactivity (PSR sort gate)” value was “low polyreactivity”.
The value for “QVQLVESGGGLVQAGGSLRLSCAASGSTFYGYTMGWYRQAPGKERELVAAISWRGGSTYYADSVKGRFTISRDNAKNTVYLQMNSLKPEDTAVYYFAARPYIVTYPWRRYDYWGQGTQVTVSS” was “high polyreactivity”; that for “QVQLVESGGGLVQAGGSLRLSCAASGSTFYGYTMGWYRQATGKERELVAVITYGGSTYYADSVKGRFTISRDNAKNTVYLQMNSLKPEDTAVYYCAKRYAYPAYGRPWRIGRTYDYWGQGTQVTVSS” was “low polyreactivity”; that for “QVQLVESGGGLVQAGGSLRLSCAASGSTFYGYVMGWYRQAPGKERELVAAITWRGTSTYYADSVKGRFTISRDNAKNTVYLQMNSLKPEDTAVYYCRGYYDRDVDYWGQGTQVTVSS” was “high polyreactivity”.
On to “QVQLVESGGGLVQAGGSLRLSCAASGSTFYGYVMGWYRQAPGKERELVAGITRGGSTNYADSVKGRFTISRDNAKNTVYLQMNSLKPEDTAVYYCATRYFSRYYYWGQGTQVTVSS”, for which the “polyreactivity (PSR sort gate)” value was “high polyreactivity”.
The same measure for “QVQLVESGGGLVQAGGSLRLSCAASGSTFYHYAMGWYRQAPGKERELVAAISWSGGSTYYADSVKGRFTISRDNAKNTVYLQMNSLKPEDTAVYYCNKAGRSWFRTGLGYWGKGTQVTVSS”: “high polyreactivity”; for “QVQLVESGGGLVQAGGSLRLSCAASGSTFYHYAMVWYRQAPGKERELVAAISSSGGRTYYADSVKGRFTISRDNAKNTVYLKMNSLKPEDTAVYYCAARAKTSGSIEDYWGQGTQVTVSS”: “high polyreactivity”.
For the sequence “QVQLVESGGGLVQAGGSLRLSCAASGSTFYINALGGYRQAPGTERELVAAITWNSDSTYYADSVKGRFTISRDNAKNTVYLQMNSLKPEDTAVYYCNKDRIIWGRLYEEGDYWGQGTQVTVSS”, the “polyreactivity (PSR sort gate)” value is listed as “low polyreactivity”.
The same measure for “QVQLVESGGGLVQAGGSLRLSCAASGSTFYINTMGRYLQAPGKEREFVAAITWSGGSTYYADSVKGRFTISRDNAKNTVYLQMNSLKPEDTAVYYCAADLYVGDMDYWGQCTQVTVSS”: “low polyreactivity”.
The value for “QVQLVESGGGLVQAGGSLRLSCAASGSTFYIYAMGWYRQAPGKERELVARISGSGGSTYYADSVKVRFTISRDNAKNTVYLQMNSLKPEDTAVYYCAVDPPYSDSLSRYGYWGQGTQVTVSS” was “low polyreactivity”; that for “QVQLVESGGGLVQAGGSLRLSCAASGSTFYIYAMGWYRQAPGKERELVATISRGGSTNYADSVKGRFTISRDNAKNTVYLQMNSLKPEDTAVYYCAAEAAFTSYWWSVTYPYDYWGQGTQVTVSS” was “high polyreactivity”; that for “QVQLVESGGGLVQAGGSLRLSCAASGSTFYIYVMGWYRQAPGKERELVATITWGGVSTYYADSVKGRFTISRDNAKNTVYLQMNSLKTEDTAVYYCATRGKSHGQQFNYWGQGTQVTVSS” was “high polyreactivity”.
In the case of “QVQLVESGGGLVQAGGSLRLSCAASGSTFYKYAMGGYRQAPGKERELVAAISTRGGSTYYADSVKGRFTISRDNAKNTVYLQMNSLKPEDTAVYYCAADGSGGHDDYWGQGTQVTVSS”, the “polyreactivity (PSR sort gate)” value was “high polyreactivity”.
The value for “QVQLVESGGGLVQAGGSLRLSCAASGSTFYKYAMGWYRQAAGKERELVASISRSGGSTSYADSVKGRFTISRDNGKNTVYLQMYCLKPEDTAVYYCAATWRQHPGSMGYWGQGTQVTVSS” was “high polyreactivity”; that for “QVQLVESGGGLVQAGGSLRLSCAASGSTFYKYAMGWYRQAPGKERELVAAISTRGGSTYYADSVKWRFTISRDNAKNTVYLQMNSLKPEDTAVFYCAADGRGGHDVYWGQGSQVTVSS” was “high polyreactivity”.
“QVQLVESGGGLVQAGGSLRLSCAASGSTFYKYAMGWYRQAPGKERELVASISRSGGSTSYADSVKGRFTISRDYAKNTVYLQMNSLKPEDTAVYYCAATWRQHPGSMGYWGQGTQVTVSS”: the “polyreactivity (PSR sort gate)” value is recorded as “high polyreactivity”.
